Results: the nanobody polyreactivity screen of Harvey et al. (2022)

Test: yeast display, Sf9 membrane polyspecificity reagent, FACS + sequencing; frameworks hold sequencing errors
How it was run: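 Genes from sorted yeast were amplified by colony PCR, read by MiSeq 2 × 250 sequencing and filtered on CDR length. These cells carried a synthetic nanobody library in Saccharomyces cerevisiae BJ5465 and were sorted by FACS into low and high (top ~1%) gates on anti-HA and streptavidin fluorescence. Polyreactivity is labelled according to the gate of origin.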

Sequence	polyreactivity (PSR sort gate)
QVQLLESGVGLVQAGGSLRLSCAASGTIFVDYAMGWYRQAPGKERQLVAAITSVGRTNYADSVKGRFTISRDNAKNTVYLQMNSLKPEDTAVYYCNKTRYTNYYTTTFDYWGQGTQVTVSS	low polyreactivity
QVQLLETGGGLVQAGRSHRLSCAASGLTFEDYAMGWYRQAPGKESELVAAITYSGGSTYYADSVKGRFTISRDNAKNSVYLQMMSLKPEDTAVSVCAAVSTLRPSWKRYYYWGQGNQVTVSS	high polyreactivity
QVQLLETGRGLFQEGGSLRLSCAASGGTFGAYVMGWYRQAPGKERELVAAISRSGTRTYYADSVKRRFTISRDNEKNTVYLQMNWLKPEDTAVYYCNAVGYTNRYDDWGQGTQVTVSS	high polyreactivity
QVQLLHSGGGKVQAGGRLRLSCAASGFIFCYYAMGWYRQAPGKERELVATISSGGNTYYADSVKGRFTISRDNAKNTVYLQMNSLKPEDTAVYYCAARWGVRPFYSTQYRYYYWGQGTQVTVSS	high polyreactivity
QVQLLQTGGGLVQAGGSLRLSCAASGSNFVIYAMGWYIQAPWNERELVATISGGGRTNYADSLKGRFTISRDNAKNTVYLQMNSLKPEDTAVYYCNGDQYGSYLGVGFDYWGQGTQVTVSS	high polyreactivity
QVQLQDSCGGLVQAGGSLRLNCATSGTIFVLWYMGWYRQAPGKERELVATINHGANTYSADSVKGRFTINRDNGNSTVYLQMNSLQPEDTAVYYCAVYAIIVWGLGYWGQGTQVTVSS	high polyreactivity
QVQLQDSGGGLVQAGGSLRLNCATSGTIFVLWYMGWYRQAPGKERELVATINDGANTYYADSVKGRFTINRDNAYSTVYLKMNSLKPEDTAVYYCAVYAIIVWGLGYWGQGTQVTVSS	high polyreactivity
QVQLQDSGGGLVQAGGSLRLSCAASGTISYRYRMGWYRQAPRKELELVAGISFGSITYYADSVKGRFTISRDNAKNTVYLQMNSLKPEDIAVYYCAVYQKSYRFFPYWGQGTQVTVSS	high polyreactivity
QVQLQDSGGGLVQAGGSLRLSCAASGTIVTARFMGWYRQAPGKERELVATITDGGNTNHADSVKGRFTISRDNAKNTVYLQMNSLKPEDAAVYYCAAGEVDNDTLLYWGQGSQVTVSS	low polyreactivity
QVQLQECGGGLVQAGRSLRLSCAASGTFSNSVKWLYCQAPGKEREFVATIGVGGSTNYADSVKGRFTISRDNAKYTVYLQMNSLKPEDTGVYHCAGYGAASNFHYDRGQGTQVTVSS	low polyreactivity
QVQLQEGGGGLVQAGGSLRLSCAASGYIFNGDWMGWYRQAPGKERELVATINYGATTNYADSVKGRFTISRDNAKNTVYLQMNSLKPEDTAVYYCAVGGHGAQLYVYWGQGTQVTVSN	high polyreactivity
QVQLQEIVGGLVQAGGSLRLSCAASGNNFDADIMGLYRQAPGKERELVASVTDGGSTNYADSVKGRFTISRDNAKNSVYLQMNILKPEDTAVYYCAAIVYPDILTYFDYDYDYFYWGQGTQVTVGS	low polyreactivity
QVQLQERAAWCRRAGSLRLSCAASGNISDYYFMGWYRQAPGKERERVAAIAPGSKTYYADSVKGRFTISRDNAKNTVYLQMNSLKPEDTAVCFCAANSTQYTWFDYWGQGTQVPVSS	low polyreactivity
QVQLQESASGLVQAGGSLRLSCAASGAIFPAYLMGWYRQAPGKERELVAGISYGSITYCADSVKGRFNISRDNAKNTVYLQMNSLKPEDTAVYYCAKDIGVRRRDYEDYEYWGQGTQVTVSS	low polyreactivity
QVQLQESCGALVQAGGTLRLSCAASGSIFEQLDMGWNRQAPGKELEFVAAIGTGSTTYYADSVKGRFSISRDNAKNTVYLQRNSLKPEDTAVYYCAVTYSVYLPFRYWGQGTQVTVSS	high polyreactivity
QVQLQESCGGLVQAGGSLCLSCAASGTIFFDGDMGWYRQAPGKEREFVAAINPGGSAYYADSVKGRLPLAAITHTVYLQMNSLKPEDTAVYYCAAKLFDVYGYYYWGQGTHVTVSS	low polyreactivity
QVQLQESCGGLVQAGGSQRLSCAASAYIFYFQYMGWYRQAPGKEREFVAAISDGANTNYADSVKGRFTISRDNAKNTEYLQMNSLKPEDTAVYYCAVYADENFYYIYWGQGTEVTVSS	low polyreactivity
QVQLQESDGGLVQAGGSLRLSCAASGNIFPTDRMGRYRQAPAKVLEFVATISHGGSTNYADSVKGRFTISRDNATNTVYLQMNSLKPEDTAVYYCAVWSLGRCRHYYWGQGTHVTVSS	low polyreactivity
QVQLQESDGGLVQAGGSLRLSCAASGSISPQYYMGWYRQAPGKEREYVAISKGTTTYSADSVKGRLTISRVNAKNTVYLQMNSLKPEDTAVYCCAAGRWLQKVHAYWDQGTQVTVSS	low polyreactivity
QVQLQESDGGLVQAGGSLRLTCAASGSISPQYYMGWYRQAPGKEREFVAISKGTTTYYADSVKGRLTISRVNANNTVYLQMNSLKPEDTAVYCCAAGRWLQKVHAYWDQGTQVTVSS	low polyreactivity
QVQLQESGAGLVQAGGDLRLSCAASGNIFRDYIMGWYRQAPGKEREFVAGIDRGANTNYADSVKGRFTISRDNAKNTVYLQMNSLKPEDTAVYYCAVHTAIVPDFIYWGQGTQVTVSS	low polyreactivity
QVQLQESGDGLVQAGGSLRLSSAASGTIFSDYGMGGYRQAPGKERELLAGISDGCNTNYTDSVKGRFTISRDNAHRVSADEQPETGGYRGVLLGGSERWLIFYVYWGQGTQVTVSC	high polyreactivity
QVQLQESGDGLVQAGGSLRLSSAASGTIFSDYGMGWYRQAPGKERELLAGISDGCNTNYTDSVKGRFTISRDNAHRVSADDQPETGGYRGVLLRGSERWLLFYVYWGLGTQVTVSS	high polyreactivity
QVQLQESGDGLVQAGGSLRLSSGASGTIVSDYGMGGYRQAPGKERELLAGISDGCNTNYTDSVKGRFTISRDNAHRVSADEQPETGGYLGVLLRGTERWLHFYVYWGQGTQVTVSS	high polyreactivity
QVQLQESGDGLVQALGSLRLSCAASGYISGYYYMGWYRQAPGKERELVAGIDAFGSSTNYADCVKGRFTISRDNAKNTVYLQMNSPKPVDTAVYYCAAEYDDWDYHWYWGEGTQVTVSS	low polyreactivity
QVQLQESGDGLVQAVGSLRLSCAARGYISGYYYMGWYRQAPGKERELVAGIDAFGSSTNYADCVKGRFTISRDNAKNTVYLQMNSLKPEDTAVYYCAARPDGDRLFSYWGQGTQVTVSS	low polyreactivity
QVQLQESGGCLVQAGGSLRLSCAASGTNLYSLGMGWSRQAPGKRREFVASITWGTTTNYAESENGRFTISRDNAKKTVYPQRNSLKPEDTAVYYCAAPPFGDSSYHYWGQATQVTVSS	low polyreactivity
QVQLQESGGDLEQAGGSLRLSCTASGTISDVRVMGWYRQAPGKERELVATISYVTITYYADSVKGRFTISRDSEKHRVSADDEPETGRYGGVLLRYYWGLGTQVTVSS	low polyreactivity
QVQLQESGGGLEQAGGSLRKSCAANGNIFDADIVGRYRQAPGKKPELVDSITDGGITNYADSVKGRFTISRDNAKYTVYLQMNIQNPEDTAVYYCASIAYPDIPTFFDYYSYFFYWGQGTQVTVSS	high polyreactivity
QVQLQESGGGLEQAGGSLRLSCAASGNISSWYPMGWYRQAPGKEREFVATIAPVATTNYADSVKGRFTISRDYAKITVYLQMNSLKPEDTAVNYCAAGPDNNDFYSYWGQGTQVTVSS	low polyreactivity
